According to US8153413B2, “High alkaline protease and use thereof” (Japan Agency for Marine-Earth Science and Technology, priority 2004, dated 2012):

B1: alkaline protease ALTP: purified high alkaline protease from Alkaliphillus transvaalensis, mature enzyme amino acid sequence SEQ ID NO: 3 (protein, listed as Alkaliphillus transvaalensis)
chain: AQSTPWGVTRVQAPNVWNRGFTGSGVRVAVLDTGIHSSHEDLTVSGGYSVFGDSPYNDVQGHGTHVAGTIAARNNSVGVIGVAYNAQLYAVKVLNNQGSGTLAGIAQGIEWARQNNMHVINMSLGGTSGSTTLQNAVNAAYNAGILVVAAAGNSGNSAGTGDNVGFPARYPNAMAVAATTSGNVRASFSSTGPAVEIAAPGQDINSTYPTNTYRSLNGTSMAAPHVAGVAALLKSARPAVTAAGIRNAMNSTALNLGNSNWYGNGLVRANNALDMVLSY

Assays:
invention enzyme = assay: Hydrolysis of natural proteins relative to casein; assay type: biochemical, Alkaliphillus transvaalensis
[1] = Thermostability, residual activity after heat treatment by casein method; assay type: physicochemical; conditions: for influence of Ca2+ / calcium chloride on thermostability: calcium chloride 5 mmol/L
Experimental: The invention enzyme was added to 50 mmol/L borate buffer (pH 10.0), and heat treatment was conducted at each temperature of from 30 to 75° C. for 10 minutes. The residual activity was measured by the casein method. The residual activity after the heat treatment is shown in FIG. 2B in which activity before the heat treatment is defined as 100%.

acidic insulin B-chain = assay: Cleavage of acidic insulin B-chain (LC/MS/MS); assay type: biochemical; conditions: 30° C.
Experimental: 3 ng of alkaline protease ALTP was added to a solution obtained by adding 0.1 mg of insulin B-chain to 100 μl of 0.1 mol/L Tris-hydrochloride buffer (pH 8.0), and a reaction was conducted at 30° C. for from 1 to 5 minutes. 5 μl of the solution was collected after 1 minute, 2 minutes and 5 minutes from the start-up of the reaction, and the reaction was terminated by addition of 50 μl of a 2% (v/v) acetonitrile/0.1% trifluoroacetic acid solution (pH 2.2). The reaction solutions were analyzed by liquid chromatograph/tandem mass analyzer (LC/MS/MS). A mixture of fragmental peptides digested with alkaline protease ALTP of the invention was separated and concentrated by capillary HPLC, and ionized to obtain MS and MS/MS spectra. The MS/MS data of the peptides was subjected to Turbo Sequest search to identify the digested acidic insulin B-chain fragments and determine the cleavage sites. Because of the search with the MS/MS data, the highly reliable identification results were obtained.
A reaction was conducted at 30° C. for 24 hours under the same conditions as in (i) by changing the concentration of alkaline protease ALTP to 300 ng. After the termination of the reaction, the acidic insulin B-chain fragment digested with alkaline protease ALTP was identified by the foregoing method to determine cleavage sites. […]

casein [2] = assay: Optimum pH / active pH, casein method; assay type: biochemical; conditions: 1% (w/v) casein, 40° C., 15 minutes, highest activity in 50 mmol/L potassium chloride/sodium hydroxide buffer
Experimental: 1 ml of each 50 mmol/L buffer containing 1% (w/v) casein (Hammerstein, Merck) was warmed at 40° C. for 5 minutes, and 0.1 ml of the enzyme solution was then added. A reaction was conducted for from 15 to 20 minutes. Subsequently, 2 ml of a trichloroacetic acid solution (TCA solution: 0.11 mol/L trichloroacetic acid, 0.22 mol/L sodium acetate and 0.33 mol/L acetic acid) was added to terminate the reaction. The reaction solution was allowed to stand at room temperature for 10 minutes, and the acid-modified protein was filtered (No. 2 filter paper, manufactured by Watman). 2.5 ml of an alkaline copper reagent [1% (w/v) potassium sodium tartrate: 1% (w/v) copper sulfate: 2% (w/v) sodium carbonate/0.1 mol/L sodium hydroxide=1:1:100] was added to 0.5 ml of the filtrate, and the mixture was warmed at 30° C. for 10 minutes. Thereafter, 0.25 ml of a dilute phenol reagent [phenol reagent (manufactured by Kanto Kagaku) diluted twofold with deionized water] was added, and the mixture was warmed at 30° C. for 30 minutes. Absorbance at 660 nm was measured with a spectrophotometer to obtain an amount of an acid-soluble protein hydrolyzate. By the way, a system obtained by mixing the enzyme reaction system with a reaction terminator and adding the enzyme solution thereto was used as a blank.
Herein, one unit (PU) of the enzyme referred to an amount of an enzyme in which to liberate the acid-soluble protein hydrolyzate corresponding to 1 μmol of tyrosine for 1 minute under the foregoing reaction conditions.
The invention enzyme was reacted at 40° C. for 15 minutes in various buffers of pH 3.5 to 12.6 containing 1% (w/v) casein as a substrate, and the enzymatic activity at each pH was measured. The results thereof are shown in FIG. 1A in terms of relative activity when the highest activity was defined as 100%.
Acetate buffer ( ? ): pH 3.5 to 6.0, phosphate buffer (▪): pH 6.5 to 8.1, carbonate buffer (◯): pH 9.0 to 11.0, phosphate/sodium hydroxide buffer (●): pH 11.0 to 12.2, and potassium chloride/sodium hydroxide buffer (▴): pH 11.5 to 12.6.

casein [3] = assay: Optimum temperature, casein method; assay type: biochemical; conditions: for influence of Ca2+ / calcium chloride on optimum temperature: calcium chloride 5 mmol/L
Experimental: 0.1 ml of the invention enzyme solution was added to 1 ml of 50 mmol/L borate buffer (pH 10.0) containing 0.5% (w/v) casein as a substrate, and a reaction was conducted at a temperature of from 30 to 85° C. for 15 minutes. Activity was measured by the casein method. Relative activity at each temperature is shown in FIG. 2A in which activity in the absence of calcium chloride at 50° C. is defined as 100%. “●” indicates relative activity in the absence of calcium chloride, and “∘” relative activity in the presence of calcium chloride.

[4] = listed as novel alkaline protease

| Molecule | hydrolytic activity, casein defined as 100% (invention enzyme) | influence of Ca2+ / calcium chloride on thermostability [1] | influence of Ca2+ / calcium chloride on thermostability ([1]; listed as invention enzyme) | influence of Ca2+ / calcium chloride on thermostability [1, 4] | temperature up to which stable without activity drop by heating ([1]; pH 10 for 10 minutes) | bond cleaved first / at the initial stage (acidic insulin B-chain; 3 ng ALTP, within 5 minutes) | peptide bonds of 29 peptide bonds cleaved (acidic insulin B-chain; 300 ng ALTP, within 24 hours) | optimum pH (casein [2]) | optimum pH (casein [2]; listed as invention enzyme) | optimum pH (casein [2]; [4]) | optimum temperature (casein [3]; borate buffer pH 10.0, casein, 15 minutes) | influence of Ca2+ / calcium chloride on optimum temperature (casein [3]) | influence of Ca2+ / calcium chloride on optimum temperature (casein [3]; listed as invention enzyme) | influence of Ca2+ / calcium chloride on optimum temperature (casein [3]; [4]) |
| --- | --- | --- | --- | --- | --- | --- | --- | --- | --- | --- | --- | --- | --- | --- |
| hemoglobin | approximately 73% | – | – | – | – | – | – | – | – | – | – | – | – | – |
| B1 | – | No improvement | unchanged | still unchanged | up to 65 °C | Leu-Tyr | 26 | 12.6 | approximately 12.6 | approximately 12.6 | 70 °C | little influenced | unchanged | still unchanged |
